Laboratory results from a protein production outcome set (Wang et al. 2014).

Assay: label from the status in PepcDB records

Question: For “MRSVTVSGFLTLIISGIMLIPSPAYSKIDTTLNTSSFIGAYLAGRVANHENKTDLAIKYFKKALTYKPENIETQVEMLEAMLFSGAFKEAVKQAQKLKKQGITNPFVSLTLSIESLIKKDYNKAKILLQLKTLPAANNPIPELIGAWATFGSGYQSQAITHLQKIQGPAWYKLFINYHLALMCDLAGHKQNAQKYFTQALNTQQATLIAPNTYEHIIIAYASFQLRSKMRIQALQTLKHGEQMLPGREIFKNIREKIEKGASLERLIKTPQQGTGEVLYNFGTTLNHKNSQRIARIFTQLSLILSPENDAIMFHLANISAKVNDLNQAIKLYRSLPQSSPYYRVGQLQLAFILANNNNHSEAIKLLTSLKKKNPNDRHILITLSALYMQDNKFTEATKTLDRAIAQITNFQQDDWKLFYQRGIAFERLQQWSKAENDLRKALDFFPNQPQVLNYLGYSLVERGEKLEESLHMLQKASTLQPQNSHILDSLGWAYYKLKQYNQAVQILGNAVRLQPEDPTLNDHLGDVYWRVGRKREAMFQWNHAIDGEAKNSKEIQEKLKFGLQ”, which protein production is on record?
Answer: The protein production was “failed”.

Question: With “MRSVVSFNEGWSFHEGFGQRLLETFDTAKSVSLPHTAVELPFSYFDETSYQRAFTYQKVLRWLPEFEGREVSLVFDAAMADSVVYLNGEEIIAHKDGYTPFEARLTGKLVKGENLVTVKIDGSENPDIPPFGGRIDYLTYAGIYRDVWLKVTDPVSIRNLKIETTDVLRPEKSATIRVDIANPEGRSFSATVTATLKQADGTVVATAATETIGSRTTLSFGGLTGIALWDITDPKLYDVTVELRTEHGSDRISTRFGFRTAEFTPEGFLLNGKPLKLRGLNRHQAFPYVGYAAGRSAQERDADIMKTVLKCNIVRTSHYPQSKWFLDRCDAIGLLVFEEIPGWQHIGDADWQQESIKNVRRMIERDWNHPSIIIWGVRINESQDDHDFYAETNRLARELDSTRQTGGVRYLTESELLEDVYTMNDFILGNEELPGANRPRTALRAQQENTGLSHKVPYLITEFNGHMHPTKIYDQEQRQAEHVRRHLEVLNAAYGDPDISGAIGWCMFDYNTHKDFGSGDRICYHGVMDMFREPKFAAYAYISQCDPSEEIVMKPVTFWARGERNIGGVLPLIILTNCDEVELQYGALSKRIGPDRENYPHLPHPPVVLDHRHFTADELGTWGLEWIDGTFTGYIGGEPVASLTLAADPLPTTLEVVADSSTLRARERDSTRVIIRALDQRGQRLPFMNDSISLKVHGPARIVGPTNVPLQGGTAGFWLEATGFTGEITVEAISTRFAPVTLGVTAA” as the sequence, how does the protein production read?
Answer: Its protein production is “failed”.

Question: For “MRTALLEVGLEELPASEFHSILKQLEEKSAELLKAYRVSSGSVEVFVGSRRFGVILKNLPERQEDFTEEKKGPPLNVAYDENGKPTRALEGFLRNNNASLENVVHREGYVYLSRVVEGKPVEEVLPDLFRDLVLGLNFRKPMRWGSGEHEYIRPVHWIVAMVDGRVLDLEIFGLRSSRISYGKRYHAGSIEIPDSERYYESLKKGFVISSHLERKKFVLEQIDEFEKRSSMKIERDEELIEEIVAITEYPRIVVGQFDRKYLELPEEIIVTAVKHHQRSFIAHKGTLTNTFVAFQDGPQPPENVVKGYERVINARLEDARYYFQKDLETPLEKMNEKLKEIVFQEKLGTLYDKVERIKKISQRLCEDLKLPGSFTQKVLEAASICKADIASKVVYEFPELQGVMGRIYALREGINEEIATAIEDHYSEEPQTVIGSILGIADRIDTIVGNFAIGNVPTSSKDPYGLKSKADTIFRIIRKNEWDISLEELLTFASSLVGYRLSEELETFFAGRFYQFLINELGISFDVARAVNHLWKKPLR”, which protein production is on record?
Answer: The protein production was “failed”.

Question: Which protein production does the source give for “MRTALLQNLFSLFPFDLHGDCDVPPARDGIRVSCIINFYGRLNVLAGILWSLAQQDFPRSAFEVILVEDRGGSDEGRALAEEFSSRLPIVYAPLDKQYGLMGYSRNFGLERSRGEFILFLDDDTIILQDDFLKTMVAYFDAQPGVSAIMPHGEASFAFVDDRYDFHDPFFMTSRCTAYRRTVLASLGGFMSSFIGQEDVEFVIRFHAAGNRCAAVPQLAYRHPPLYVTNLGKPMAVGSSFYGIRKRYPLVTWLLAVVNCSRHLPLVLAPSRKYREMGRFGLGFLWGVLTAPFRSGSLNYRLEHHHHHH” here?
Answer: The protein production was “failed”.

Question: For “MRTAVIIPFYQREAGILSRALDSVDGQILPEGHSLTVFVIDDESPVSARSEVEGRQGKVPVRLIAQKNGGPGAARNAGLDAVAAEGFDHVAFLDSDDIWQPTHLADALDLLARGYDFHFCDHQRTDDDITYFERTPALRRMREERHAGVTVLDAEAPILAFDQPSIMAASVDTYLSQTSTVVVRQSFVETLRFDPRLRNAGEDQLFWLSLIAAGARTVVSWKMNVLCGRGVNVYFDAFDWKSTKVVDRTGYMLMFFHTVGRRLSLTASDRRTVADRIRRYRRAYSYLFLRALLQGRVPTLSLTWKLAALDPGLVPAMPLRFLAVLPNREAESLQWLEHHHHHH”, which protein production is on record?
Answer: The protein production was “failed”.

Question: For “MRTDNINHWDVVAETYSEENNRGRNFHSQIYLAAVNELLGNVKGKCVLDAGCGDGFFSLELAQKGALVTAVDSSEAMLSIAKHKHVHDNLQYYNMDLTRELTFEDKFFDIVVANMLLMDIPEIELLIFEIARVLKKPGTFIFSITHPCFFLSDWEENENNIKTYKKIGNYLEERVEELNFWGKTLHYHRPLSRYMEAVEKAGMYVSSLREPVPPRELIELYPEQEYHCRIPSFVVIMAQMV”, which protein production is on record?
Answer: The protein production was “failed”.

Question: Which protein production does the source give for “MRTIIALETHDVRFPTSRELDGSDAMNPDPDYSAAYVVLRTDGAEDLAGYGLVFTIGRGNDVQTAAVAALAEHVVGLSVDKVIADLGAFARRLTNDSQLRWLGPEKGVMHMAIGAVINAAWDLAARAANKPLWRFIAELTPEQLVDTIDFRYLSDALTRDEALAILRDAQPQRAARTATLIEQGYPAYTTSPGWLGYSDEKLVRLAKEAVADGFRTIKLKVGANVQDDIRRCRLARAAIGPDIAMAVDANQRWDVGPAIDWMRQLAEFDIAWIEEPTSPDDVLGHAAIRQGITPVPVSTGEHTQNRVVFKQLLQAGAVDLIQIDAARVGGVNENLAILLLAAKFGVRVFPHAGGVGLCELVQHLAMADFVAITGKMEDRAIEFVDHLHQHFLDPVRIQHGRYLAPEVPGFSAEMHPASIAEFSYPDGRFWVEDLAA” here?
Answer: Its protein production is “not failed”.

Question: For “MRTISFFNNKGGVGKTTLSTNVAHYFALQGKRVLYVDCDPQCNATQLMLTEEQTESIYLDGLNDEVAERNSLAKTVYAIFVPLREGESQIAAEITPMRSERFGVDVLPGHPALSQIEDLMSDSWQSALGRQTGPFRRIHWAGQLAHAMERDDRYDVIFFDVGPSLGPFNRTVLLGCDAFVTPTATDLFSFHAFGNLARWFDAWVTQ”, which protein production is on record?
Answer: Its protein production is “failed”.

Question: With “MRTIWLVFIANFKRAYSNKKKFFINLLVPVAAIILAIVVNYVSSPSLNIGVNEKIKSKGGDRIVKMLKHTRGINAKVCHGELMKTEVILGKYDAVVTIKRKLGKNSFNNMSKYFEFYNVRDKKTNEDMKKLIKAYLVQNKTLNMERIVKDEQIGGLSKSERIIAFLATVLLITSVVNGAVIIRDREENTYYRYMYSPNSKFEYIFGNVIYNYIFSYIQLFIANSLMAIFGIYIGISFLKMLSYGLILTLVMTTFGTFIVCIFNKELYANMFSAAISLILSLVGGTFINYKIMPEGLRRISDVTPNRWIIKSVQYMQNGRFGSINPMMVLIAFSIMFSLAAVLVSKFHKVQFK” as the sequence, how does the protein production read?
Answer: Its protein production is “failed”.

Question: With “MRTLILAAALALAPLSAAAQDRAQTLADIKAEIAALQGQFNDLKRELVSTGAATSGAAGGSALQRMDAMEAAIAQVTAKAESLELKINRVVSDGSNRVGDLEFRVCELEEGCDIGAIGETKPLGGEASAAPAPTPAPAPAADPAGTFAVNEKADFDRAQEVLGQGDFRTAADLFKTFAETYTGGQLTYEAHYLRGEALSRLGETANAARAYLESFSGDPDGPRAPEALLKLGRALGDLRQTPEACVTLAEVGTRFPGSPSAAEAATTMQGLGCS” as the sequence, how does the protein production read?
Answer: Its protein production is “failed”.

Question: Which protein production does the source give for “MRTPCSQHRRDRPSAIGSQLPDADTLDTRQPPLQEIPISSFADKTFTAPAQIRNFCIIAHIDHGKSTLADRMLQLTGVVDERSMRAQYLDRMDIERERGITIKAQNVRLPWRVDKTDYVLHLIDTPGHVDFTYEVSRALEACEGAVLLVDAAQGIEAQTLANLYLALDRDLHIIPVLNKIDLPAADPDRYAAEMAHIIGCEPAEVLRVSGKTGEGVSDLLDEVVRQVPPPQGDAEAPTRAMIFDSVYDIYRGVVTYVRVVDGKISPRERIMMMSTGATHELLEVGIVSPEPKPCEGLGVGEVGYLITGVKDVRQSKVGDTVTSLSRARGAAAEALTGYREPKPMVYSGLYPVDGSDYPNLRDALDKLQLNDAALTYEPETSVALGFGFRCGFLGLLHMEITRERLEREFGLDLISTSPNVVYRVHKDDGTEIRVTNPSDWPEGKIRTVYEPVVKTTIIAPSEFIGTIMELCQSRRGELGGMDYLSPERVELRYTMPLGEIIFDFFDALKSRTRGYASLDYEEAGEQEAALVKVDILLQGEAVDAFSAIVHKDTAYAYGNKMTTKLKELIPRQQFEVPVQAAIGSKIIARENIRAIRKDVLSKCYGGDITRKRKLLEKQKEGKKRMKTIGRVEVPQEAFVAALSTDAAGDKGKK” here?
Answer: The protein production was “failed”.

Question: With “MRVDELRVDERIKSTLKERGIESFYPPQAEALKSGILEGKNALISIPTASGKTLIAEIAMVHRILTQGGKAVYIVPLKALAEEKFQEFQDWEKIGLRVAMATGDYDSKDEWLGKYDIIIATAEKFDSLLRHGSSWIKDVKILVADEIHLIGSRDRGATLEVILAHMLGKAQIIGLSATIGNPEELAEWLNAELIVSDWRPVKLRRGVFYQGFVTWEDGSIDRFSSWEELVYDAIRKKKGALIFVNMRRKAERVALELSKKVKSLLTKPEIRALNELADSLEENPTNEKLAKAIRGGVAFHHAGLGRDERVLVEENFRKGIIKAVVATPTLSAGINTPAFRVIIRDIWRYSDFGMERIPIIEVHQMLGRAGRPKYDEVGEGIIVSTSDDPREVMNHYIFGKPEKLFSQLSNESNLRSQVLALIATFGYSTVEEILKFISNTFYAYQRKDTYSLEEKIRNILYFLLENEFIEISLEDKIRPLSLGIRTAKLYIDPYTAKMFKDKMEEVVKDPNPIGIFHLISLTPDITPFNYSKREFERLEEEYYEFKDRLYFDDPYISGYDPYLERKFFRAFKTALVLLAWINEVPEGEIVEKYSVEPGDIYRIVETAEWLVYSLKEIAKVLGAYEIVDYLETLRVRVKYGIREELIPLMQLPLVGRRRARALYNSGFRSIEDISQARPEELLKIEGIGVKTVEAIFKFLGKNVKISEKPRKSTLDYFLKS” as the sequence, how does the protein production read?
Answer: Its protein production is “failed”.

Question: For “MRVHPDRGRTNLPPFKLRSSRSTYKALKEKANGDALTNAGDRSIFVPDGICQGKAAERCQKTRQRGVRSVKNLIVKIAAAALLVLAPAIAQAAEGYSTANVNMRAGPSTRYPAVAVIPAGSSVEIRGCLSNVNWCDVEFYGGRGWVSGQYVQAVYEQRRVYVGPQYYRPLGIPMVTFSVGNYWDRYYRGRDFYRERDRWSRGPDYYYRDRDYRDRDYRREYRDRDYQVREYRDRDRDRRDDARREERRREVRRDDDNRSSDFRDLPQFRGGKADTYNHPDPRASPFVCRPGDPSCGD”, which protein production is on record?
Answer: The protein production was “failed”.

Question: Which protein production does the source give for “MRVKTIMTQNPVTITLPATRNYALELFKKYKVRSFPVVNKEGKLVGIISVKRILVNPDEEQLAMLVKRDVPVVKENDTLKKAAKLMLEYDYRRVVVVDSKGKPVGILTVGDIIRRYFAKSEKYKGVEIEPYYQRYVSIVWEGTPLKAALKALLLSNSMALPVVDSEGNLVGIVDETDLLRDSEIVRIMKSTELAASSEEEWILESHPTLLFEKFELQLPNKPVAEIMTRDVIVATPHMTVHEVALKMAKYSIEQLPVIRGEGDLIGLIRDFDLLKVLVKSKA” here?
Answer: Its protein production is “not failed”.

Question: For “MRVLETIVALREYRKSLEESVGFVPTMGALHKGHQSLIERSLKENSHTIVSVFVNPTQFGANEDFNAYPRPLEKDLALCEKLGVNAVFVPKIGEMYPYEAEQRLKLYAPKFLSSSLEGAMRKGHFDGVVQIVLKMFHLVNPTRAYFGKKDAQQLLIIEHLVKDLLLDIEIAPCEIVRDDDNLALSSRNVYLNATQRKQALAIPKALEKIQQAIDKGEKACEKLKKLGLEILETLEVDYLECCNHKLEPLTIIEPTNTLILVAARVGKTRLLDNLWV”, which protein production is on record?
Answer: The protein production was “failed”.

Question: For “MRVLPLLLLIYPFAEIAALVALADRIGGLAVFLLVLLSSMLGLWMLRNQKLGALLTLGSVMRQGDKVSLYSLLWPLRYALAGLLFLLPGLLSDVAAVLLLLPLKGPDISLRATGAGPAAGPAGGSDIIEGEFSRVDETTPPGRRIQ”, which protein production is on record?
Answer: Its protein production is “failed”.
